# Experiment: soluble on expression in E. coli; label from the status in PepcDB or PDB records
row,Sequence,soluble on expression in E. coli
1,MGSDKIHHHHHHMSMNSEPTPAEAFFLEGNRLLAASECRAAEACFREALALAPDFAEAHANLGMLLDQEGMAAEAERQYRLALALNPRLGHTHSNLGVLLANQKRFEEAESAYLSAIELEPDSPAAWSNLGVLQACRKQEREAEESYRTALRLDPDYHRASFNLSYLLLRQGRFDEGWSLLESRNRRWFARLEEHLPCPRWRGEDLQGRSLLIGLEAGHGDMIQFCRYAPLLKDRGAARITLVCHVALKDLLKTLDGVDTVISFDEILPDDAWDFWTPAMSIPCYCRTRLDSIPARIPYLHADPGLAEQWAAMLEREWAGPEMRIGLAWKGNPHFENDGDRSLPHLKTLEPLGAVAGVRFFSLQKGAGEEEAAQPPAGLPVVNLMRHIAGFADTAALVANLDLVITVDTAVAHLAGALGTECWVLLPEYRTDWRWLTGRTDSPWYPGVMRLFRQPRVGDWETVVAEVGEALRLFAARPRSPRGTR,not soluble
2,MIKIAIPTSKGGLEDKVHESLVRAETFTLVEVKDGKIERIEVVENPHKNEPYGAGSKVAIFLVNNGVNILLTPMDCPKGKAILEAGGVKIIKVKQGKSVKEVIEAFQSSSSGYSLQ,soluble
3,TLPFRIGHGFDLHRLEPGYPLIIGGIVIPHDRGCEAHSDGDVLLHCVVDAILGALGLPDIGQIFPDSDPKWKGAASSVFIKEAVRLMDEAGYEIGNLDATLILQRPKISPHKETIRSNLSKLLGADPSVVNLKAKTHEKVDSLGENRSIAAHTVILLMKK,soluble
4,MGSDKIHHHHHHMYKINIIRSDSVYKNILKAPINDRDSIFTKEILVPFKKKFEVQHMPIYNDDKQTMSAIQFLDAFQISPKDLRMSDQMSIQYLNNDFWSNCEKYLKVAIDQFSNYSISSQVSNYHFTVLLGDSQKPLMYLNKNRGGDGGIPGYIMIYLVPSTSTINSMKSLIAHEVNHNMRYQYIDWDGGSLIELIIAEGLAENYVESLYGKAHIGPWVTNTNWSRDNVKIKNTIYNHLHLKHIFESMPYLYGDDINKLQGRPIVGLSHAAGYACGYHLVKYFLQKTNIPIEVATTLPAQKIINEVTEFWHTHTL,not soluble
5,MGSDKIHHHHHHMSKKVVLTREASKNKPWQTYFSQNGYEVMSIPLIKTQPIKINLTREQQETDWLFLTSANAVEYFFTNQYERSNYKIAVIGEKTKEKLAEFGHEPSFVPSIYQSEVFLEEWLNENPEKTSILLPQSNLSRTIIKDTLIEKGYIVFSIELYETIFPEASKKLLTEQLKLNETQIIVFASPSAWKNFYSIAKSFPAQKEKWHIASIGSITTEAILADGWEVKYQPKTFTMKHLADLIIQEELK,not soluble
6,MGSDKIHHHHHHMSEGCAFAYPFIFVGANMKKIAFIGECMIELNGKPFGEMWQSYGGDTLNSATYLSRMSSPNDIQVYYVSALGSDNLSEQMRMHWQADGVNTDWVLKDENHQPGLYLIQLDEQGERTFLYWRNQSAAHYMVQHHDFSQVLSALEQVDMIYLSGISLAILPKNDRTFLLEQLIKLAKKGVQISFDSNFRPKLWDSFQEAQDCYLQLLPCVSLALVTFDDEQLLWNDTNEPATLTRLHQIGIPKVVVKCGRNGAIFSDSQTSQYGQVVPKPISNVVDTTSAGDSFNAGFLNGYLRNKPLDICCRQGNYVAGIVIQHKGAIIDKHATSHLQSEFN,not soluble
7,MIEQIGADSKSAENKQERKLYIETYGCQMNVADSEVVASVMQMDGYNLTDNVDEADTILVNTCSVRDNAEQKVLNRLAYYHSLRKKRRASSRLVIGVLGCMAERVKEELIREHHVDVVAGPDSYLDLPNLVGAAEQGEKAINVELSTQETYKDVMPLKMGGVHINGFVSIMRGCNNFCSYCIVPYTRGRERSREIESILNEVRDLKAKNFREVTLLGQNVNSYRYEQNGRIIRFPDLLAAVAEAVPDMRIRFTSPHPKDMDDEAIAVMARYRNICNHIHLPAQSGSDKMLRVMKRGYTRRWYLDRVAAIRRAIPDCAISSDLFCGFHSETEEDFEATLSLMEEVRYDSAFMFKYSERPGTYAARHLADDVPEEVKLSRLDRMIALQNRLSEESNKRDIGKTFEVLIEGFSKRSREQLFGRTQQNKVVIFDKNGHRVGQYIYVRIKDASSATLFGEVVETPTSELEHHHHHH,soluble
8,MGSDKIHHHHHHMWTSKQQQALDHLAATPSLLVVSDFDGTLAGFSHDAMQVPVNHVAMAALQQLTSLPSTRVALLSGRDVQGLIQVSGAAAPMIVAGSHGAESTEGGLVLNEDQQAALSAVTAALEEIATSVPGAFVEHKPYHRVLHVIRVADQQRARAALDRALALEIPGAKIAEGKWIAEASVVDFTKGTWIKAAQEQYRPSVTLFLGDDTTDENGFAVLGCNDVGIKVGAGDTCATVRLESIDRVGQFLSSLADARSAAQQ,not soluble
9,MKLGFVGAGRVGSTSAFTCLLNLDVDEIALVDIAEDLAVGEAMDLAHAAAGIDKYPKIVGGADYSLLKGSEIIVVTAGLARKPGMTRLDLAHKNAGIIKDIAKKIVENAPESKILVVTNPMDVMTYIMWKESGKPRNEVFGMGNQLDSQRLKERLYNAGARNIRRAWIIGEHGDSMFVAKSLADFDGEVDWEAVENDVRFVAAEVIKRKGATIFGPAVAIYRMVKAVVEDTGEIIPTSMILQGEYGIENVAVGVPAKLGKNGAEVADIKLSDEEIEKLRNSAKILRERLEELGY,soluble
10,MRGSHHHHHHTDPALRAYDNLKSLGITNPEEIDRYSLRQEANNDILKIYFQKDKGEFFAKSVKFKYPRQRKTVVADGVGQGYKEVQEISPNLRYIIDELDQICQRDRSEVDLKRKILDDLRHLESVVTNKISEIEADLEKLTRKGLCGR,soluble
11,MSLEAKKDMGRCLWELKDEIDHVDRYCHDLAAWDDLHAFIKAPNADFLKINLNADTILDNEVSFICIVDRSGQLLFAEDWDLHRKEKTVLTTLPDSLRSVASLPFSSESDKDDLSNMKRVGIYNSSRGPMMLSSRPIITSNQQGPVQGAVIIGRLLDQGSLDAMMVRVALNFRFIDMSGDELTAKEKKILGELAVEEISIVERENSDNLEVYSHLADIGGRYLIQAEIPKHILQREGHHHHHH,soluble
12,MPMNNFLDEFNLFDSIITMMKNDPCCVEDYEPIVENLNRIFQRTFNDEEHRKSMANSQLFWERLRDTLEAMLLPASLNENSSIPYTRTVRGLILMMRNLAAENQEIPQKLLLQNLVIRGFLHATSEYVVDTPLIKHLYIACLTCLFNIQQNYSTVDMTTFPALLQFLQYPYGIKLEDGEEEEHFWLPYLFLFKTYLNNDEFSNEFFRDNDTPQKDYYCVRDRIFFDIVTAKFIQDQENSFLIEKGRNYLDDSKLEITSIDLSVLECISKSLTTASFGKYLNGLEERQPGKFTTLLQILQLVVTSKEDWNTYELTAIMSWCYPILQRLACKDIPAFFNKSCNDYAPSVAIQLHSTLLSCLDIISDLCKFNHVRKFLISYDSVKILVSLLDTFQKNLLRINFLKGNGDTVNEIKITDHEGNKIEDRLLIFNRVNTNESFIRADNFPHCKLVIIEILASLVYAHPEIQDQIRELGGLALILSNCVIDDNDPFIKERSIVCLKFLLKNNAKNQEYVKKMEAQDVVQDDALSKAGFEISVEKGGKVRLVSKEEDPGNENSEIISIDED,not soluble
13,MGSDKIHHHHHHMELDILDALGEGWTLTPAGGITGEAYIASTGQSKLFLKRNSSPFLAILSADGIVPKLLWTKRIYSGDVISAQQFIEGQELEPEMMERPEVARLLGKIHDSKELLFMLQQLDQRPIEPDELLRQCRLYFQPAELAQPELIEQAIDYLSERLPYVRTDEQVVCHSDLNHNNWLVGTDGHLYLNDWDDAIIADRAYDLGMMLYSYVDEECWPEWFAHYGHPLTKDLKQRMYWYVVAQAVLSIYWYEDTMHPDATESYLFLAQLLEMEQED,not soluble
14,MGSSHHHHHHSSGRENLYFQGHMEKDRKRILITGGAGFVGSHLTDKLMMDGHEVTVVDNFFTGRKRNVEHWIGHENFELINHDVVEPLYIEVDQIYHLASPASPPNYMYNPIKTLKTNTIGTLNMLGLAKRVGARLLLASTSEVYGDPEVHPQSEDYWGHVNPIGPRACYDEGKRVAETMCYAYMKQEGVEVRVARIFNTFGPRMHMNDGRVVSNFILQALQGEPLTVYGSGSQTRAFQYVSDLVNGLVALMNSNVSSPVNLGNPEEHTILEFAQLIKNLVGSGSEIQFLSEAQDDPQKRKPDIKKAKLMLGWEPVVPLEEGLNKAIHYFRKELEYQANNQGS,soluble
15,MSLKARFLLLAALLSGVAGAYTVKKGDTLYSLARGSGLTVDALMRLNGLSTPELRVGQVIKLPGEGAATPATPAPAAPTPATPAPAAPAPAPAVPTKLPTVATAANVLKLPGVTITAPKALKMGDGFALRLSGEQAANVTVRFPSELGEDVRQPNEELRPLWSSGQYIVPGRVVLGKTTPVIYEVRLGGDVVRGQIPVGDLGQRVQHLNLPPSISKVLQDPAREAEDAAVEQAYQRRTPQQWQQPFASALASGKATSSSFGQPRTYVAGGKVAYHYGTDYPARSGTAVLAINDGTVVIAGRYPVRGGLVVIDHGAGVVSLYFHQSKVTAKVGQQIKRGQKVGEVGSTGLSAGPHLHLEVRVRGEGTNPAGWMGKLWPEGHHHHHH,not soluble
16,MGSDKIHHHHHHMKIAQIAPLAERVPPKLYGGTERIVHCLTEELVRLGHDVTLFASGDSLTSAELVPCCDVALRLNPRVQDFLPHHIAMLEEVRRRAPQFDVLHFHIEFLHFPLIRDFADRTVTTLHTRLDLPDLQPFYLAFPDIPLVSISQHQRVPMPPVNWRGTVLHGLDPTVLPLREGRSDEYLAFLGRIAPEKGPDRAIEIAARSGMPLKIAAKIDAQDRAYWEAVVEPLIASHSNVEYIGEIDEGQKADFLGNAAALLFPINWPEPFGLVMIEAMACGTPVLAFRYGSAPEVIDDGVSGILVDTVEQAVESLGRVLELDRRKVRESFETRFTTERMTRDYLDIYQNLPGVLRQTASTPQGEAKKVGLEAA,not soluble
17,MKGGLLVDDEFIHGEERSLTVRKTSLFFAGDGFTVYDCKGSLVFRVDSYGGPNTRDTDEVVLMDAHGRCLLTLRRKRPSLRRRWEGYLGERSDGQKPIFGVRRSSIIGRNSVTVEVYGDYQCSEYLIEGSFGARNCTVVEAETRRKVAEIRRKVDASTNVMLGKDVFSLNVKPGFDGAFAMGLVLVLDQIYGDDLLEVGEEQVHPSAEDL,not soluble
18,MSLRNQSKMPLVERLDAHAKSCPISLHVPGHKSGAIYPDAWQKLLKWDVTEITGMDDLHHPEDVILEAEELLAECYGSKKSYFLVNGTSGGNVAVIMATLKRGEKVLVPRDAHKSILHGIELAGGEPIFLTPATNKEVGVASGVTTELLEETLHNHPDVKLCIFTYPSYYGTTFNLQKCIRIAHDFGAVVFVDEAHGAHFLTSSEFPKSAVELGADVVVQSAHKTLPALTMGSYLHVVNDLPIFEKLAYYLQVFQTSSPSYLIMASLDAARKYVATYTAADVEAFWKMRARWIKWLTKNKFEVILPDDPLKIIVRKTGYTGYELQAIFEESSYFPELADESQVLLILPLIKKGIDFTPISRIHSPMKKEIAKEPYEMSTPCASGLALTYEEMHARATEFVLLDEATTRVSAETISLYPPGIPAIIRGEGITEKHIRELKNIRTRHYQGGEKLAENYIRVFREGHHHHHH,soluble
19,MSLAEVGSKSVLFVCLGNICRSPIAEAVFRKLVTDEKVSDNWAIDSSAVSDWNVGRPPDPRAVSCLRNHGISTAHKARQITKEDFATFDYILCMDESNLRDLNRKSNQVKNCKAKIELLGSYDPQKQLIIEDPYYGNDSDFEVVYQQCLRCCKAFLEKTYEGHHHHHH,soluble
20,MQAAITVAIPILYKDSVSCSHAESEHFSGTGVTVIIFEVGRDCMKYSFLRQINACVCFDQYEEMEGLLCNGLYMFFIQYTPTILRGDLFAF,not soluble
